Assay results published in US20030186281A1, “Modified tetracycline repressor protein compositions and methods of use” (priority 2001, published 2003).

Test system: tet operator sequence
Assay: β-galactosidase activity of a tetracycline-regulated promoter in transformed E. coli with revTetR, in the presence and absence of anhydrotetracycline (atc)
Assay type: cell-based, Escherichia coli
Settings: for Relative Activity of revTetR repressors, 28° C. ratio (non-repressed to repressed levels of transcription) / Relative Activity of revTetR repressors, 37° C. ratio (non-repressed to repressed levels of transcription): E. coli, absence vs presence of anhydrotetracycline; for β-Galactosidase Activity, Cultured Without ATC: RevTetR isolate cultured in the absence of anhydrotetracycline (ATC); for β-Galactosidase Activity, Cultured With ATC: RevTetR isolate cultured in the presence of anhydrotetracycline (ATC)
Method: The relative activity of revTetR repressors was determined at 28° C. and 37° C. for each clone by measuring β-galactosidase activity of a tetracycline-regulated promoter in transformed Escherichia coli in the presence and absence of the tetracycline analog, anhydrotetracycline (atc). The relative β-galactosidase activity was measured in standard Miller units and is presented as the percent of maximal expression as measured in the absence of Tet repressor. […] With respect to each mutant, as well as the wild-type controls, FIG. 2 provides two horizontal bars; the upper horizontal bar represents the level of β-galactosidase activity in the absence of anhydrotetracycline (−atc) while the lower horizontal bar represents the level of β-galactosidase activity in the presence of anhydrotetracycline (+atc).
The pool of mutated Tet repressors was cloned into plasmid pWH1411 (Baumeister et al., 1992, Proteins: Struct. Funct. Genet. 14: 168-77), which carries a TetR(B) gene, to provide a TetR(BD) chimera that included, as the amino-terminal portion, amino acid residues 1 to 50 of the TetR(B) gene and, as the carboxyl-terminal portion, amino acid residues 51 to 208 of the TetR(D) gene. The resulting plasmid pool was screened in a genetic assay which positively selects for a functional interaction between a Tet repressor and its cognate operator using E. coli strain WH207(λWH25) (the construction of this strain is described in detail in Wissmann et al., (1991) Genetics 128: 225-32). In this E. coli strain, tet operators direct the expression of divergently arranged β-galactosidase (lacZ) and Lac repressor (lacI) genes and the lac regulatory region directs the expression of a galactokinase (galK) gene on plasmid pWH414. Binding of Tet repressors to tet operators turns off transcription of the lacI and lacZ genes. The absence of Lac repressor allows for expression of the galK gene, which enables the E. coli strain to use galactose as a sole carbon source, which serves as one marker. The lacZ^− phenotype serves as a second marker. Thus, bacteria containing Tet repressors which bind to tet operators, have a Gal^+, lacZ^− phenotype. Bacteria containing wild-type Tet repressors have a Gal^+, lacZ^− phenotype in the absence of tetracycline. Modified “reverse” Tet repressors (revTetR) were selected based upon a Gal^+, lacZ^− phenotype in the presence of tetracycline.
The ability of each revTetR clone to bind to its cognate tet operator sequence and regulate transcription in a prokaryotic organism, Escherichia coli, in the presence and absence of a tetracycline analog (anhydrotetracycline, atc) was determined (Table 3, FIG. 2). The relative ratios of non-repressed to repressed levels of transcription for the 15 clones range from about 1.4-fold to about 50-fold at 28° C. and from about 1.3-fold to 40-fold at 37° C. For example, clone 4b comprising an amino acid substitution of glutamic acid for glycine at position 96 (e.g., SEQ ID NO. 24) repressed transcription 19-fold at 37° C. but to a less extent at 28° C. (5.7-fold, Table 3). Furthermore, clones 14, 5a and 7 comprising the arginine for glycine substitution at position 96 and further comprising a substitution or substitutions of serine for threonine at position 103 and valine for glutamic acid at position 114; leucine for proline at position 159; or glutamine to histidine at position 188, respectively, have pronouncedly different activities.
wherein each underlined base was present in approximately 85% of the oligonucleotides, while the remaining approximately 15% of the oligonucleotides contained one of the other three, non-wild type bases at that position. Similar mutagenic, partially randomized oligonucleotides were prepared for mutagenesis of the coding regions for amino acids 14-25 and 93-102. It was predicted that, according to a binomial distribution, each oligonucleotide would contain three to four mutations. […]

| Molecule | repression of transcription (ratio of non-repressed to repressed levels of transcription) (28° C.) | Relative Activity of revTetR repressors, 28° C. ratio (non-repressed to repressed levels of transcription) (28° C.) | repression of transcription (ratio of non-repressed to repressed levels of transcription) (37° C.) | Relative Activity of revTetR repressors, 37° C. ratio (non-repressed to repressed levels of transcription) (37° C.) | β-Galactosidase Activity, Cultured Without ATC | β-Galactosidase Activity, Cultured With ATC |
| --- | --- | --- | --- | --- | --- | --- |
| Clone 4b (protein, revTetR4b) MSRLDKSKVINSALELLNEVGIEGLTTRKLAQKLGVEQPTLYWHVKNKRALLDALAVEILARHHDYSLPAAGESWQSFLRNNAMSFRRALLRYRDRAKVHLGTRPDEKQYDTVETQLRFMTENGFSLRDGLYAISAVSHFTLGAVLEQQEHTAALTDRPAAPDENLPPLLREALQIMDSDDGEQAFLHGLESLIRGFEVQLTALLQIV | 5.7 fold | 5.7 | 19 fold | 19.0 | – | – |
| TetRrevAD2/4: revTetR(BD) L17F N18R D53N I59M A61T (protein, Modified tetracycline repressor, revTetR(BD) L17F N18R D53N I59M A61T) MSRLDKSKVINSALELFREVGIEGLTTRKLAQKLGVEQPTLYWHVKNKRALLNALAVEMLTRHHDYSLPAAGESWQSFLRNNAMSFRRALLRYRDGAKVHLGTRPDEKQYDTVETQLRFMTENGFSLRDGLYAISAVSHFTLGAVLEQQEHTAALTDRPAAPDENLPPLLREALQIMDSDDGEQAFLHGLESLIRGFEVQLTALLQIV | – | – | – | – | 32.2603 | 1.0068 |
| TetRrevAD1/6: revTetR(BD) N18Y E23V D53A A54S L55L A56S A61T H63Y (protein, Modified tetracycline repressor, revTetR(BD) N18Y E23V D53A A54S L55L A56S A61T H63Y) MSRLDKSKVINSALELLYEVGIVGLTTRKLAQKLGVEQPTLYWHVKNKRALLASLSVEILTRYHDYSLPAAGESWQSFLRNNAMSFRRALLRYRDGAKVHLGTRPDEKQYDTVETQLRFMTENGFSLRDGLYAISAVSHFTLGAVLEQQEHTAALTDRPAAPDENLPPLLREALQIMDSDDGEQAFLHGLESLIRGFEVQLTALLQIV | – | – | – | – | 85.6043 | 2.5079 |
| TetRrevAF1/11: revTetR(BD) L14I V20V I22L R94H A97A V99E (protein, Modified tetracycline repressor, revTetR(BD) L14I V20V I22L R94H A97A V99E) MSRLDKSKVINSAIELLNEVGLEGLTTRKLAQKLGVEQPTLYWHVKNKRALLDALAVEILARHHDYSLPAAGESWQSFLRNNAMSFRRALLRYHDGAKEHLGTRPDEKQYDTVETQLRFMTENGFSLRDGLYAISAVSHFTLGAVLEQQEHTAALTDRPAAPDENLPPLLREALQIMDSDDGEQAFLHGLESLIRGFEVQLTALLQIV | – | – | – | – | 96.2362 | 1.1578 |
| TetRrevAF2/5: revTetR(BD) L14R E!9E D95H L101P (protein, Modified tetracycline repressor, revTetR(BD) L14R E!9E D95H L101P) MSRLDKSKVINSARELLNEVGIEGLTTRKLAQKLGVEQPTLYWHVKNKRALLDALAVEILARHHDYSLPAAGESWQSFLRNNAMSFRRALLRYRHGAKVHPGTRPDEKQYDTVETQLRFMTENGFSLRDGLYAISAVSHFTLGAVLEQQEHTAALTDRPAAPDENLPPLLREALQIMDSDDGEQAFLHGLESLIRGFEVQLTALLQIV | – | – | – | – | 97.8373 | 2.4067 |
| Clone 11 (protein, revTetR11) MSRLDKSKVINSALELLNEVGIEGLTTRKLAQKLGVEQPTLYWHVKNKRALLDALAVEILARHHDYSLPAAGESWQSFLRNNAMSFRRALLRYRDGAKEHLGTRPDEKQYDTVETQLRFMTENGFSLRDGLYAISAVSHFTLGAVLEQQEHTAALTDRPAAPDENLPPLLREALQIMDSDDGEQAFLHGLESLIRGFEVQLTALLQIV | 18 fold | 18.1 | 41 fold | 41.1 | – | – |
| TetRrevAD2/6: revTetR(BD) N18Y G21E E23K (protein, Modified tetracycline repressor, revTetR(BD) N18Y G21E E23K) MSRLDKSKVINSALELLYEVEIKGLTTRKLAQKLGVEQPTLYWHVKNKRALLDALAVEILARHHDYSLPAAGESWQSFLRNNAMSFRRALLRYRDGAKVHLGTRPDEKQYDTVETQLRFMTENGFSLRDGLYAISAVSHFTLGAVLEQQEHTAALTDRPAAPDENLPPLLREALQIMDSDDGEQAFLHGLESLIRGFEVQLTALLQIV | – | – | – | – | 89.5374 | 3.8811 |
| TetRrevAD1/2: revTetR(BD) N18Y L52L D53Y A54A I59T (protein, Modified tetracycline repressor, revTetR(BD) N18Y L52L D53Y A54A I59T) MSRLDKSKVINSALELLYEVGIEGLTTRKLAQKLGVEQPTLYWHVKNKRALLYALAVETLARHHDYSLPAAGESWQSFLRNNAMSFRRALLRYRDGAKVHLGTRPDEKQYDTVETQLRFMTENGFSLRDGLYAISAVSHFTLGAVLEQQEHTAALTDRPAAPDENLPPLLREALQIMDSDDGEQAFLHGLESLIRGFEVQLTALLQIV | – | – | – | – | 84.85 | 1.6137 |
| TetRrevAF1/7: revTetR(BD) G96R L101I (protein, Modified tetracycline repressor, revTetR(BD) G96R L101I) MSRLDKSKVINSALELLNEVGIEGLTTRKLAQKLGVEQPTLYWHVKNKRALLDALAVEILARHHDYSLPAAGESWQSFLRNNAMSFRRALLRYRDRAKVHIGTRPDEKQYDTVETQLRFMTENGFSLRDGLYAISAVSHFTLGAVLEQQEHTAALTDRPAAPDENLPPLLREALQIMDSDDGEQAFLHGLESLIRGFEVQLTALLQIV | – | – | – | – | 72.199 | 2.2753 |
| TetRrevAD2/12: revTetR(BD) E23H D53Y A56A E58Q I59T (protein, Modified tetracycline repressor, revTetR(BD) E23H D53Y A56A E58Q I59T) MSRLDKSKVINSALELLNEVGIHGLTTRKLAQKLGVEQPTLYWHVKNKRALLYALAVQTLARHHDYSLPAAGESWQSFLRNNAMSFRRALLRYRDGAKVHLGTRPDEKQYDTVETQLRFMTENGFSLRDGLYAISAVSHFTLGAVLEQQEHTAALTDRPAAPDENLPPLLREALQIMDSDDGEQAFLHGLESLIRGFEVQLTALLQIV | – | – | – | – | 73.5981 | 1.2806 |
| TetRrevAF1/8: revTetR(BD) G24G Y93N L101F G102D (protein, Modified tetracycline repressor, revTetR(BD) G24G Y93N L101F G102D) MSRLDKSKVINSALELLNEVGIEGLTTRKLAQKLGVEQPTLYWHVKNKRALLDALAVEILARHHDYSLPAAGESWQSFLRNNAMSFRRALLRNRDGAKVHFDTRPDEKQYDTVETQLRFMTENGFSLRDGLYAISAVSHFTLGAVLEQQEHTAALTDRPAAPDENLPPLLREALQIMDSDDGEQAFLHGLESLIRGFEVQLTALLQIV | – | – | – | – | 42.088 | 1.1643 |
